Test results as given in the MegaScale stability set (Tsuboyama et al. 2023).

B1: HEEH_KT_rd6_0790 (parent)
chain: SEEEEEEWRRAKERGEEIIILGILWKPNDEEAERRIKEALRRV

Variants of: B1
Assay: folding stability dG (cDNA display proteolysis); higher = more stable
Details: PBS, room temperature

Q: For SEEEEEEWRRAKERGEFIIILGILWKPNDEEAERRIKEALRRV, which “folding stability dG” value is on record?
A: Its value is 1.92 kcal/mol.

Q: Which “folding stability dG” value does the source give for SEEEEEEWRRAKERGEDIIILGILWKPNDEEAERRIKEALRRV here?
A: Its value is 1.81 kcal/mol.

Q: With SEEEEEEWRRAKERGEGIIILGILWKPNDEEAERRIKEALRRV as the variant, how does the “folding stability dG” value read?
A: Its value is 1.53 kcal/mol.

Q: For SEEEEEEWRRAKERGEMIIILGILWKPNDEEAERRIKEALRRV, which “folding stability dG” value is on record?
A: Its value is 2.02 kcal/mol.

Q: Which “folding stability dG” value does the source give for SEEEEEEWRRAKERGELIIILGILWKPNDEEAERRIKEALRRV here?
A: Its value is 1.89 kcal/mol.

Q: Which “folding stability dG” value does the source give for SEEEEEEWRRAKERGEVIIILGILWKPNDEEAERRIKEALRRV here?
A: The value was 2.08 kcal/mol.

Q: Which “folding stability dG” value does the source give for SEEEEEEWRRAKERGEPIIILGILWKPNDEEAERRIKEALRRV here?
A: The value was 2.5 kcal/mol.

Q: Which “folding stability dG” value does the source give for SEEEEEEWRRAKERGEKIIILGILWKPNDEEAERRIKEALRRV here?
A: Its value is 1.74 kcal/mol.

Q: Which “folding stability dG” value does the source give for SEEEEEEWRRAKERGETIIILGILWKPNDEEAERRIKEALRRV here?
A: The value was 2.16 kcal/mol.

Q: For SEEEEEEWRRAKERGESIIILGILWKPNDEEAERRIKEALRRV, which “folding stability dG” value is on record?
A: Its value is 2.18 kcal/mol.

Q: With SEEEEEEWRRAKERGEIIIILGILWKPNDEEAERRIKEALRRV as the variant, how does the “folding stability dG” value read?
A: The value was 1.94 kcal/mol.

Q: With SEEEEEEWRRAKERGEQIIILGILWKPNDEEAERRIKEALRRV as the variant, how does the “folding stability dG” value read?
A: Its value is 2.02 kcal/mol.

Q: With SEEEEEEWRRAKERGECIIILGILWKPNDEEAERRIKEALRRV as the variant, how does the “folding stability dG” value read?
A: The value was 2.35 kcal/mol.

Q: With SEEEEEEWRRAKERGENIIILGILWKPNDEEAERRIKEALRRV as the variant, how does the “folding stability dG” value read?
A: Its value is 1.95 kcal/mol.

Q: With SEEEEEEWRRAKERGEAIIILGILWKPNDEEAERRIKEALRRV as the variant, how does the “folding stability dG” value read?
A: The value was 2.12 kcal/mol.

Q: With SEEEEEEWRRAKERGEHIIILGILWKPNDEEAERRIKEALRRV as the variant, how does the “folding stability dG” value read?
A: The value was 1.89 kcal/mol.

Q: Which “folding stability dG” value does the source give for SEEEEEEWRRAKERGEYIIILGILWKPNDEEAERRIKEALRRV here?
A: The value was 1.91 kcal/mol.

Q: Which “folding stability dG” value does the source give for SEEEEEEWRRAKERGERIIILGILWKPNDEEAERRIKEALRRV here?
A: Its value is 1.7 kcal/mol.

Q: Which “folding stability dG” value does the source give for SEEEEEEWRRAKERGEWIIILGILWKPNDEEAERRIKEALRRV here?
A: The value was 2.29 kcal/mol.

Q: Which “folding stability dG” value does the source give for SEEEEEEWRRAKERGEEIQILGILWKPNDEEAERRIKEALRRV here?
A: Its value is 1.69 kcal/mol.

Q: Which “folding stability dG” value does the source give for SEEEEEEWRRAKERGEEIRILGILWKPNDEEAERRIKEALRRV here?
A: The value was 1.77 kcal/mol.

Q: Which “folding stability dG” value does the source give for SEEEEEEWRRAKERGEEIAILGILWKPNDEEAERRIKEALRRV here?
A: The value was 1.33 kcal/mol.

Q: With SEEEEEEWRRAKERGEEIGILGILWKPNDEEAERRIKEALRRV as the variant, how does the “folding stability dG” value read?
A: Its value is 1.01 kcal/mol.

Q: Which “folding stability dG” value does the source give for SEEEEEEWRRAKERGEEIMILGILWKPNDEEAERRIKEALRRV here?
A: The value was 2.01 kcal/mol.

Q: For SEEEEEEWRRAKERGEEIPILGILWKPNDEEAERRIKEALRRV, which “folding stability dG” value is on record?
A: The value was 0.976 kcal/mol.

Q: Which “folding stability dG” value does the source give for SEEEEEEWRRAKERGEEIKILGILWKPNDEEAERRIKEALRRV here?
A: Its value is 1.49 kcal/mol.

Q: Which “folding stability dG” value does the source give for SEEEEEEWRRAKERGEEIFILGILWKPNDEEAERRIKEALRRV here?
A: The value was 2.08 kcal/mol.

Q: With SEEEEEEWRRAKERGEEIEILGILWKPNDEEAERRIKEALRRV as the variant, how does the “folding stability dG” value read?
A: Its value is 1.85 kcal/mol.

Q: With SEEEEEEWRRAKERGEEIHILGILWKPNDEEAERRIKEALRRV as the variant, how does the “folding stability dG” value read?
A: Its value is 1.43 kcal/mol.

Q: Which “folding stability dG” value does the source give for SEEEEEEWRRAKERGEEINILGILWKPNDEEAERRIKEALRRV here?
A: Its value is 1.55 kcal/mol.

Q: With SEEEEEEWRRAKERGEEILILGILWKPNDEEAERRIKEALRRV as the variant, how does the “folding stability dG” value read?
A: Its value is 2.12 kcal/mol.

Q: Which “folding stability dG” value does the source give for SEEEEEEWRRAKERGEEISILGILWKPNDEEAERRIKEALRRV here?
A: Its value is 1.52 kcal/mol.

Q: For SEEEEEEWRRAKERGEEIDILGILWKPNDEEAERRIKEALRRV, which “folding stability dG” value is on record?
A: Its value is 0.997 kcal/mol.

Q: For SEEEEEEWRRAKERGEETIILGILWKPNDEEAERRIKEALRRV, which “folding stability dG” value is on record?
A: Its value is 1.84 kcal/mol.

Q: Which “folding stability dG” value does the source give for SEEEEEEWRRAKERGEEMIILGILWKPNDEEAERRIKEALRRV here?
A: The value was 1.42 kcal/mol.

Q: For SEEEEEEWRRAKERGEEEIILGILWKPNDEEAERRIKEALRRV, which “folding stability dG” value is on record?
A: Its value is 0.975 kcal/mol.

Q: With SEEEEEEWRRAKERGEEHIILGILWKPNDEEAERRIKEALRRV as the variant, how does the “folding stability dG” value read?
A: The value was 1.29 kcal/mol.

Q: With SEEEEEEWRRAKERGEEKIILGILWKPNDEEAERRIKEALRRV as the variant, how does the “folding stability dG” value read?
A: Its value is 1.68 kcal/mol.

Q: With SEEEEEEWRRAKERGEESIILGILWKPNDEEAERRIKEALRRV as the variant, how does the “folding stability dG” value read?
A: The value was 1.17 kcal/mol.

Q: For SEEEEEEWRRAKERGEENIILGILWKPNDEEAERRIKEALRRV, which “folding stability dG” value is on record?
A: Its value is 1.06 kcal/mol.

Q: For SEEEEEEWRRAKERGEEPIILGILWKPNDEEAERRIKEALRRV, which “folding stability dG” value is on record?
A: The value was 0.472 kcal/mol.

Q: For SEEEEEEWRRAKERGEEDIILGILWKPNDEEAERRIKEALRRV, which “folding stability dG” value is on record?
A: The value was 0.812 kcal/mol.

Q: With SEEEEEEWRRAKERGEECIILGILWKPNDEEAERRIKEALRRV as the variant, how does the “folding stability dG” value read?
A: Its value is 2.38 kcal/mol.

Q: With SEEEEEEWRRAKERGEELIILGILWKPNDEEAERRIKEALRRV as the variant, how does the “folding stability dG” value read?
A: The value was 1.39 kcal/mol.

Q: Which “folding stability dG” value does the source give for SEEEEEEWRRAKERGEERIILGILWKPNDEEAERRIKEALRRV here?
A: Its value is 1.3 kcal/mol.

Q: For SEEEEEEWRRAKERGEEQIILGILWKPNDEEAERRIKEALRRV, which “folding stability dG” value is on record?
A: The value was 1.3 kcal/mol.

Q: With SEEEEEEWRRAKERGEEGIILGILWKPNDEEAERRIKEALRRV as the variant, how does the “folding stability dG” value read?
A: The value was 0.605 kcal/mol.

Q: Which “folding stability dG” value does the source give for SEEEEEEWRRAKERGEEFIILGILWKPNDEEAERRIKEALRRV here?
A: The value was 2.1 kcal/mol.

Q: For SEEEEEEWRRAKERGEEAIILGILWKPNDEEAERRIKEALRRV, which “folding stability dG” value is on record?
A: Its value is 1.59 kcal/mol.

Q: For SEEEEEEWRRAKERGEEYIILGILWKPNDEEAERRIKEALRRV, which “folding stability dG” value is on record?
A: The value was 1.86 kcal/mol.

Q: For SEEEEEEWRRAKERGEEWIILGILWKPNDEEAERRIKEALRRV, which “folding stability dG” value is on record?
A: Its value is 1.67 kcal/mol.

Q: With SEEEEEEWRRAKERGEEVIILGILWKPNDEEAERRIKEALRRV as the variant, how does the “folding stability dG” value read?
A: The value was 2.15 kcal/mol.

Q: For SEEEEEEWRRAKNRGEEIIILGILWKPNDEEAERRIKEALRRV, which “folding stability dG” value is on record?
A: The value was 1.69 kcal/mol.

Q: With SEEEEEEWRRAKWRGEEIIILGILWKPNDEEAERRIKEALRRV as the variant, how does the “folding stability dG” value read?
A: The value was 1.78 kcal/mol.

Q: Which “folding stability dG” value does the source give for SEEEEEEWRRAKQRGEEIIILGILWKPNDEEAERRIKEALRRV here?
A: The value was 2.15 kcal/mol.

Q: With SEEEEEEWRRAKSRGEEIIILGILWKPNDEEAERRIKEALRRV as the variant, how does the “folding stability dG” value read?
A: Its value is 2.1 kcal/mol.

Q: With SEEEEEEWRRAKVRGEEIIILGILWKPNDEEAERRIKEALRRV as the variant, how does the “folding stability dG” value read?
A: The value was 1.94 kcal/mol.

Q: With SEEEEEEWRRAKRRGEEIIILGILWKPNDEEAERRIKEALRRV as the variant, how does the “folding stability dG” value read?
A: Its value is 1.77 kcal/mol.

Q: For SEEEEEEWRRAKTRGEEIIILGILWKPNDEEAERRIKEALRRV, which “folding stability dG” value is on record?
A: The value was 1.77 kcal/mol.
